Reference: patent publication US20110118447A1
Numbering of substitutions follows the chain as printed. Names and notes keep the numbering of the source. One block for each binder: values may come before it.

Tests used:
[1] = target: binding partner of C5A (XPA23); experiment: Biacore
[2] = target: binding partner of C5A (XPA23); experiment: Biacore K-off
[3] = target: binding partner of C5A (XPA23); experiment: Biacore, K-off

fold affinity vs original [1]: 0.77 fold | fold difference in affinity vs original [2]: 0.77 fold
B1: C5A (XPA23) VH F33Y (antibody, V domains shown)
VH: EVQLLESGGGLVQPGGSLRLSCAASGFTFSKYYMFWVRQAPGKGLEWVSVISPSGGMTRYADSVKGRFTISRDNSKNTLYLQMNSLRAEDTAVYYCARVGYGGNSDYWGQGTLVTVSS
VL: DIQMTQSPSSVSASVGDRLTIICRASQDINRWLAWYQQTPGNAPKLLIHSATSLQSGVPSRFSGSGSGTDFTLTINSLQPEDFATYYCQQADSFPLTFGGGTKVEIK

fold difference in affinity vs original [1]: 0.91 fold | fold difference in affinity vs original [2]: 0.91 fold
B2: C5A (XPA23) VH F33P (antibody, V domains shown)
VH: B1 VH with Y33P
VL: B1 VL

fold affinity vs original [1]: 0.07 fold | fold difference in affinity vs original [3]: 0.07 fold
B3: C5A (XPA23) VH I51D (antibody, V domains shown)
VH: B1 VH with Y33F, I51D
VL: B1 VL

fold affinity vs original [1]: 0.85 fold | fold difference in affinity vs original [3]: 0.85 fold
B4: C5A (XPA23) VH F35Y (antibody, V domains shown)
VH: B1 VH with Y33F, F35Y
VL: B1 VL

fold difference in affinity vs original [1]: 1.08 fold | fold difference in affinity vs original [2]: 1.08 fold
B5: C5A (XPA23) VH K31L (antibody, V domains shown)
VH: B1 VH with K31L, Y33F
VL: B1 VL

fold difference in affinity vs original [1]: 0.75 fold | fold difference in affinity vs original [2]: 0.75 fold
B6: C5A (XPA23) VH F33I (antibody, V domains shown)
VH: B1 VH with Y33I
VL: B1 VL

fold difference in affinity vs original [1]: 0.88 fold | fold difference in affinity vs original [2]: 0.88 fold
B7: C5A (XPA23) VH F33L (antibody, V domains shown)
VH: B1 VH with Y33L
VL: B1 VL

fold difference in affinity vs original [1]: 0.76 fold | fold difference in affinity vs original [2]: 0.76 fold
B8: C5A (XPA23) VH F33V (antibody, V domains shown)
VH: B1 VH with Y33V
VL: B1 VL

fold affinity vs original [1]: 0.09 fold | fold difference in affinity vs original [3]: 0.09 fold
B9: C5A (XPA23) VH F35S (antibody, V domains shown)
VH: B1 VH with Y33F, F35S
VL: B1 VL

fold affinity vs original [1]: 0.84 fold | fold difference in affinity vs original [2]: 0.84 fold
B10: C5A (XPA23) VH K31W (antibody, V domains shown)
VH: B1 VH with K31W, Y33F
VL: B1 VL

fold difference in affinity vs original [1]: 1.07 fold | fold difference in affinity vs original [2]: 1.07 fold
B11: C5A (XPA23) VH Y32V (antibody, V domains shown)
VH: B1 VH with Y32V, Y33F
VL: B1 VL

fold affinity vs original [1]: 0.79 fold | fold difference in affinity vs original [2]: 0.79 fold
B12: C5A (XPA23) VH F33W (antibody, V domains shown)
VH: B1 VH with Y33W
VL: B1 VL

fold affinity vs original [1]: 0.1 fold | fold difference in affinity vs original [3]: 0.1 fold
B13: C5A (XPA23) VH I51R (antibody, V domains shown)
VH: B1 VH with Y33F, I51R
VL: B1 VL

fold affinity vs original [1]: 0.77 fold | fold difference in affinity vs original [2]: 0.77 fold
B14: C5A (XPA23) VH S30W (antibody, V domains shown)
VH: B1 VH with S30W, Y33F
VL: B1 VL

fold difference in affinity vs original [1]: 0.77 fold | fold difference in affinity vs original [2]: 0.77 fold
B15: C5A (XPA23) VH S30A (antibody, V domains shown)
VH: B1 VH with S30A, Y33F
VL: B1 VL

fold difference in affinity vs original [1]: 1 fold | fold difference in affinity vs original [2]: 1 fold
B16: C5A (XPA23) VH Y32G (antibody, V domains shown)
VH: B1 VH with Y32G, Y33F
VL: B1 VL

fold affinity vs original [1]: 0.08 fold | fold difference in affinity vs original [3]: 0.08 fold
B17: C5A (XPA23) VH I51H (antibody, V domains shown)
VH: B1 VH with Y33F, I51H
VL: B1 VL

fold difference in affinity vs original [1]: 0.91 fold | fold difference in affinity vs original [2]: 0.91 fold
B18: C5A (XPA23) VH S30L (antibody, V domains shown)
VH: B1 VH with S30L, Y33F
VL: B1 VL

fold affinity vs original [1]: 0.73 fold | fold difference in affinity vs original [3]: 0.73 fold
B19: C5A (XPA23) VH I51E (antibody, V domains shown)
VH: B1 VH with Y33F, I51E
VL: B1 VL

fold affinity vs original [1]: 0.86 fold | fold difference in affinity vs original [3]: 0.86 fold
B20: C5A (XPA23) VH F35N (antibody, V domains shown)
VH: B1 VH with Y33F, F35N
VL: B1 VL

fold difference in affinity vs original [1]: 0.86 fold | fold difference in affinity vs original [3]: 0.86 fold
B21: C5A (XPA23) VH I51T (antibody, V domains shown)
VH: B1 VH with Y33F, I51T
VL: B1 VL

fold affinity vs original [1]: 0.75 fold | fold difference in affinity vs original [2]: 0.75 fold
B22: C5A (XPA23) VH Y32F (antibody, V domains shown)
VH: B1 VH with Y32F, Y33F
VL: B1 VL

fold affinity vs original [1]: 0.05 fold | fold difference in affinity vs original [2]: 0.05 fold
B23: C5A (XPA23) VH K31F (antibody, V domains shown)
VH: B1 VH with K31F, Y33F
VL: B1 VL

fold difference in affinity vs original [1]: 0.75 fold | fold difference in affinity vs original [2]: 0.75 fold
B24: C5A (XPA23) VH F33A (antibody, V domains shown)
VH: B1 VH with Y33A
VL: B1 VL

fold difference in affinity vs original [1]: 0.74 fold | fold difference in affinity vs original [3]: 0.74 fold
B25: C5A (XPA23) VH F35T (antibody, V domains shown)
VH: B1 VH with Y33F, F35T
VL: B1 VL

fold difference in affinity vs original [1]: 0.75 fold | fold difference in affinity vs original [2]: 0.75 fold
B26: C5A (XPA23) VH Y32L (antibody, V domains shown)
VH: B1 VH with Y32L, Y33F
VL: B1 VL

fold difference in affinity vs original [1]: 0.03 fold | fold difference in affinity vs original [3]: 0.03 fold
B27: C5A (XPA23) VH V50T (antibody, V domains shown)
VH: B1 VH with Y33F, V50T
VL: B1 VL

fold affinity vs original [1]: 0.68 fold | fold difference in affinity vs original [3]: 0.68 fold
B28: C5A (XPA23) VH F35K (antibody, V domains shown)
VH: B1 VH with Y33F, F35K
VL: B1 VL

fold difference in affinity vs original [1]: 0.81 fold | fold difference in affinity vs original [2]: 0.81 fold
B29: C5A (XPA23) VH K31V (antibody, V domains shown)
VH: B1 VH with K31V, Y33F
VL: B1 VL

fold affinity vs original [1]: 0.11 fold | fold difference in affinity vs original [3]: 0.11 fold
B30: C5A (XPA23) VH I51K (antibody, V domains shown)
VH: B1 VH with Y33F, I51K
VL: B1 VL

fold affinity vs original [1]: 0.03 fold | fold difference in affinity vs original [3]: 0.03 fold
B31: C5A (XPA23) VH V50N (antibody, V domains shown)
VH: B1 VH with Y33F, V50N
VL: B1 VL

fold difference in affinity vs original [1]: 0.13 fold | fold difference in affinity vs original [2]: 0.13 fold
B32: C5A (XPA23) VH S30G (antibody, V domains shown)
VH: B1 VH with S30G, Y33F
VL: B1 VL

fold affinity vs original [1]: 0.68 fold | fold difference in affinity vs original [3]: 0.68 fold
B33: C5A (XPA23) VH I51N (antibody, V domains shown)
VH: B1 VH with Y33F, I51N
VL: B1 VL

fold difference in affinity vs original [1]: 0.68 fold | fold difference in affinity vs original [2]: 0.68 fold
B34: C5A (XPA23) VH Y32P (antibody, V domains shown)
VH: B1 VH with Y32P, Y33F
VL: B1 VL

fold affinity vs original [1]: 0.06 fold | fold difference in affinity vs original [3]: 0.06 fold
B35: C5A (XPA23) VH F35D (antibody, V domains shown)
VH: B1 VH with Y33F, F35D
VL: B1 VL

fold difference in affinity vs original [1]: 0.74 fold | fold difference in affinity vs original [2]: 0.74 fold
B36: C5A (XPA23) VH K31I (antibody, V domains shown)
VH: B1 VH with K31I, Y33F
VL: B1 VL

fold difference in affinity vs original [1]: 0.76 fold | fold difference in affinity vs original [2]: 0.76 fold
B37: C5A (XPA23) VH F33G (antibody, V domains shown)
VH: B1 VH with Y33G
VL: B1 VL

fold affinity vs original [1]: 0.69 fold | fold difference in affinity vs original [3]: 0.69 fold
B38: C5A (XPA23) VH I51S (antibody, V domains shown)
VH: B1 VH with Y33F, I51S
VL: B1 VL

fold difference in affinity vs original [1]: 0.08 fold | fold difference in affinity vs original [2]: 0.08 fold
B39: C5A (XPA23) VH S30I (antibody, V domains shown)
VH: B1 VH with S30I, Y33F
VL: B1 VL
